Article PMC13356908

What was measured:
[1] = target: LD655-labeled p97 D592AzF (human) (UniProt P55072); assay: cryo-EM structure; datasets 1 and 2: 12.5 uM ^LD655p97^D592AzF, 10 uM UN, 10 uM Faf1 FH-UBX, 20 uM Ub-^Cy3Ub-Ubn, GF buffer with 5 mM ATP, 0.06% CHAPS, 0.04% octyl-β-D-glucopyranoside, frozen at once after mixing; PI state, I state, Npl4 local map, IC1 and IC2
[2] = target: LD655-labeled p97 D592AzF (human) (UniProt P55072); assay: FRET or BRET; stopped-flow mixing, 37°C, with ATP; 1 uM ^LD655p97/UN/Faf1 and 0.1 uM Ub-^Cy3Ub-Ubn chains; excitation 480 nm; apparent time constant
Ufd1 (human) (human) = target: T1, Ufd1 (human) (human)
T1 sequence (Q92890 1-307, looked up): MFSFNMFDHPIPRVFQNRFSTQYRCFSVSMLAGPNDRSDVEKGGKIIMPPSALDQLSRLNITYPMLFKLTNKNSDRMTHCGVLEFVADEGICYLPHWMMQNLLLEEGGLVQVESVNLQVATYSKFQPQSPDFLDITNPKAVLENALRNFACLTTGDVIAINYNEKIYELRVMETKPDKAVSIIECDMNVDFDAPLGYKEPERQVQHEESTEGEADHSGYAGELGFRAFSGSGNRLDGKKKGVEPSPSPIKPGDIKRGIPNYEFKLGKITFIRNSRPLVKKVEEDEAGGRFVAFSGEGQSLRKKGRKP

In the case of “Faf1 FH-UBX fragment (from UniProt Q9UNN5 481-650) (domain or fragment)”, the stoichiometry N (per p97 hexamer) [1] is reported as 2.

With “unanchored poly-ubiquitin chains with Cy3 on the second ubiquitin (Ub-^Cy3Ub-Ubn) (from UniProt P0CG48 1-76; P0CG48 1-76; P0CG48 1-76)” the apparent time constant of ubiquitin insertion (τinitiation) [2] was 5.1 s.

B1: Faf2 Δ1-271 (domain or fragment)
chain: YLVSERLEREERNQTQVLRQQQDEAYLASLRADQEKERKKREERERKRRKEEEVQQQKLAEERRRQNLQEEKERKLECLPPEPSPDDPESVKIIFKLPNDSRVERRFHFSQSLTVIHDFLFSLKESPEKFQIEANFPRRVLPCIPSEEWPNPPTLQEAGLSHTEVLFVQDLTDE
In the case of B1, the Eos-unfolding activity of p97-UN (Ufd1 (human) (human)) is reported as 5 fold.
